Patent US11214624 (PRODA BIOTECH, dated 2022)

Assays:
[1] = target: T1, dynein (endogenous, in SW480 cell extracts) (UniProt O14576 2-645); test: co-immunoprecipitation in extracts of scratch-wounded SW480 cells
T1 construct: Multi-subunit motor; also called Dynein intermediate 1

[2] = target: T2, kinesin (endogenous, in SW480 cell extracts) (UniProt P33176 2-963); test: as above
T2 construct: also called heavy chain of kinesin-1
T2 sequence (looked up): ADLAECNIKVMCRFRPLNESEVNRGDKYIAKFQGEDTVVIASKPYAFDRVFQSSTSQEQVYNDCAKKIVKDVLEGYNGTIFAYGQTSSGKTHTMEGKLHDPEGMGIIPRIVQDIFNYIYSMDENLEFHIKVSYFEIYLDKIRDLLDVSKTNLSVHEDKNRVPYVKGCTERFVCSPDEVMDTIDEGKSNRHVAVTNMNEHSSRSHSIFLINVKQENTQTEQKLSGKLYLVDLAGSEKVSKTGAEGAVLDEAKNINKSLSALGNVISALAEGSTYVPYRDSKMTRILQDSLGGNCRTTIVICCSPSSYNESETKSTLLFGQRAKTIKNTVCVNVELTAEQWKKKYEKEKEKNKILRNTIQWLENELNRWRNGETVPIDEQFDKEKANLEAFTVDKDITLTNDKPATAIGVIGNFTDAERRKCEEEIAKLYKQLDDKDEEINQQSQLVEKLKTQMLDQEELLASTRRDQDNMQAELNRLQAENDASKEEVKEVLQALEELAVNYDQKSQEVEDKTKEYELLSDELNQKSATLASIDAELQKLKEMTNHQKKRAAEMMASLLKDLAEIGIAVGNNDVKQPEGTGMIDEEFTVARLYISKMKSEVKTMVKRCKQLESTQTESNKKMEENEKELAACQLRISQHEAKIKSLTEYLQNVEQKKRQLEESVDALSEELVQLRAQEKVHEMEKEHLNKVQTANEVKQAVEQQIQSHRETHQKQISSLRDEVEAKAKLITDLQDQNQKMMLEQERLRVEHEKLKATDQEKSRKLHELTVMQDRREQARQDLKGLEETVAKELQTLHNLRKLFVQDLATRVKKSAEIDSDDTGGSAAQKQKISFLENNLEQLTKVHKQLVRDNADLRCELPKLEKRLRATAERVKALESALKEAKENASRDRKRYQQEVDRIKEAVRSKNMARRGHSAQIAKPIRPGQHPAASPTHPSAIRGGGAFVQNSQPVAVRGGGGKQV

T1 sequence (O14576 2-645): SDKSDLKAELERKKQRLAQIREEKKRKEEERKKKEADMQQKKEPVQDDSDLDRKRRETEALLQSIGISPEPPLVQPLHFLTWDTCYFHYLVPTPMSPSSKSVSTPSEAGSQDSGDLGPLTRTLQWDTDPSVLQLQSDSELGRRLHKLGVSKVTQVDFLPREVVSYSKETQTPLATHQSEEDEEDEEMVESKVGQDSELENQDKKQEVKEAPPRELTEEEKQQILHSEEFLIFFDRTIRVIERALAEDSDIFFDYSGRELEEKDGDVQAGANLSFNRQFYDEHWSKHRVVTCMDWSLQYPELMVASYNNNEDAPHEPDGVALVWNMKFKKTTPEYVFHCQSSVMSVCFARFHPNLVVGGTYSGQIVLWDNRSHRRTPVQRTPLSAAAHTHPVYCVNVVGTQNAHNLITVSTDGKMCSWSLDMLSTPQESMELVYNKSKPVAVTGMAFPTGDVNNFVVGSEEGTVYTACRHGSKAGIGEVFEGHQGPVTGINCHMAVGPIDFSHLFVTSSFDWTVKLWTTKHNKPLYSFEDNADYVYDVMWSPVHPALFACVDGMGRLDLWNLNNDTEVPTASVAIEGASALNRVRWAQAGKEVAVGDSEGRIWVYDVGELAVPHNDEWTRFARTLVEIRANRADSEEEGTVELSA

B1: p68 RNA helicase (endogenous, in SW480 cell extracts) (enzyme)
chain: MSGYSSDRDRGRDRGFGAPRFGGSRAGPLSGKKFGNPGEKLVKKKWNLDELPKFEKNFYQEHPDLARRTAQEVETYRRSKEITVRGHNCPKPVLNFYEANFPANVMDVIARQNFTEPTAIQAQGWPVALSGLDMVGVAQTGSGKTLSYLLPAIVHINHQPFLERGDGPICLVLAPTRELAQQVQQVAAEYCRACRLKSTCIYGGAPKGPQIRDLERGVEICIATPGRLIDFLECGKTNLRRTTYLVLDEADRMLDMGFEPQIRKIVDQIRPDRQTLMWSATWPKEVRQLAEDFLKDYIHINIGALELSANHNILQIVDVCHDVEKDEKLIRLMEEIMSEKENKTIVFVETKRRCDELTRKMRRDGWPAMGIHGDKSQQERDWVLNEFKHGKAPILIATDVASRGLDVEDVKFVINYDYPNSSEDYIHRIGRTARSTKTGTAYTFFTPNNIKQVSDLISVLREANQAINPKLLQLVEDRGSGRSRGRGGMKDDRRDRYSAGKRGGFNTFRDRENYDRGYSSLLKRDFGAKTQNGVYSAANYTNGSFGSNFVSAGIQTSFRTGNPTGTYQNGYDSTQQYGSNVPNMHNGMNQQAYAYPATAAAPMIGYPMPTGYSQ
notes: Endogenous protein in lysates of SW480 cells; also called Human p68
B1: no binding [1]; no binding [2].

B2: HA-tagged wild-type p68 (HA-p68), immunopurified from SW480 cell lysates (enzyme)
chain: B1 chain
notes: One construct, purified from SW480 cells either with or without scratch-wound treatment; also called HA-p68 WT; WT; not shown: hemagglutinin (HA) tag from the pHM6 vector
B2: no binding [1]; no binding [2].
